Assay results taken from article PMC4546533.

Key:
[1] = target: MmpL3-D1 (MmpL3 residues 32 – 187) (Mycobacterium tuberculosis) (UniProt P9WJV5); test: BLI
[2] = target: MmpL11-D1 (MmpL11 residues 41 – 187) (Mycobacterium tuberculosis) (UniProt P9WJT9); test: BLI
Sequence of UniProt P9WJT9 (P9WJT9 41-187): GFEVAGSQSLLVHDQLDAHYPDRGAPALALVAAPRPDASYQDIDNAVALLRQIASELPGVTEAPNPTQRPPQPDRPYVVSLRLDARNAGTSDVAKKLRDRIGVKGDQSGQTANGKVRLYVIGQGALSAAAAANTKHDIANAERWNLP

Sequence of UniProt P9WJV5 (P9WJV5 32-187): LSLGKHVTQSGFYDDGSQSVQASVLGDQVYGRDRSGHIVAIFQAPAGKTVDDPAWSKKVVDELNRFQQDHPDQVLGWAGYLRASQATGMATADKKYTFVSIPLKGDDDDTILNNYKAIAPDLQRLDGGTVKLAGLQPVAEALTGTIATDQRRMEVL

Substance | Kd [1] | Kd [2]
MmpL3-D2 (MmpL3 residues 419 – 560) (from UniProt P9WJV5 419-560) (domain or fragment) | 4.1 µM | –
MmpL11-D2 (MmpL11 residues 390 – 529) (from UniProt P9WJT9 390-529) (domain or fragment) | – | 4.5 µM
